Molecular target: GST-MYC2-HA (UniProt Q39204)
Sequence (Q39204 whole entry): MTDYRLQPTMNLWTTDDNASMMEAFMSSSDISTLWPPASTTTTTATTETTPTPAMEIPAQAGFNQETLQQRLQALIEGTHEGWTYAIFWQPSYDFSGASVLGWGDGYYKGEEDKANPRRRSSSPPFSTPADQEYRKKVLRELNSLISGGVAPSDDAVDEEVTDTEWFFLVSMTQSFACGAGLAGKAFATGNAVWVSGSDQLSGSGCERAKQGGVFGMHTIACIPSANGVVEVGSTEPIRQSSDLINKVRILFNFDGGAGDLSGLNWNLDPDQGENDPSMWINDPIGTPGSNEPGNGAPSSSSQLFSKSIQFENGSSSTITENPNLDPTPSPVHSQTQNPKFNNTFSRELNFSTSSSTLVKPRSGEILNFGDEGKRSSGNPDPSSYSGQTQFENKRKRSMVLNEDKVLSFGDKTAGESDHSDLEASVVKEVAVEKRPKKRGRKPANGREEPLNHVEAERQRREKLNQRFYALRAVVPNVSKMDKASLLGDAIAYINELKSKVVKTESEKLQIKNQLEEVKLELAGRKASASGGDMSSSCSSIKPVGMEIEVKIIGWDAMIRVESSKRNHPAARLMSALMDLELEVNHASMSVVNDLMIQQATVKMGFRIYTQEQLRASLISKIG

MBP-PUB11 (C247A)-myc
in vitro ubiquitination of MYC2 (E1, E2, Ub; Western blot): MBP-PUB11 (C247A)-myc mutant protein has no E3 activity for GST-MYC-HA
